According to publication PMC5404276 (ACS Chemical Biology, 2017):

What was measured:
[1] = target: human mitochondrial cysteine desulfurase NFS1 (human); assay: amino acid analysis + other: SAXS
[2] = target: [Acp]2:[ISD11]2:[NFS1]2 cysteine desulfurase complex (human | E. coli) (UniProt Q9HD34); assay: SEC + other: amino acid analysis + other: SAXS
human ISD11-His6 (human) = human ISD11-His6 (human) (UniProt Q9HD34); assay: amino acid analysis + other: SAXS
human ISD11-His6 = human ISD11-His6 (human, UniProt Q9HD34 1-91); assay: amino acid analysis + other: SAXS
human ISD11-His6, sequence (Q9HD34 whole entry): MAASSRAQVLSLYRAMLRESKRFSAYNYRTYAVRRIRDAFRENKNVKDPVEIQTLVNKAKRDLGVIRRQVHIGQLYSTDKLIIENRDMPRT

human mitochondrial cysteine desulfurase NFS1 (human), sequence (Q9Y697 whole entry): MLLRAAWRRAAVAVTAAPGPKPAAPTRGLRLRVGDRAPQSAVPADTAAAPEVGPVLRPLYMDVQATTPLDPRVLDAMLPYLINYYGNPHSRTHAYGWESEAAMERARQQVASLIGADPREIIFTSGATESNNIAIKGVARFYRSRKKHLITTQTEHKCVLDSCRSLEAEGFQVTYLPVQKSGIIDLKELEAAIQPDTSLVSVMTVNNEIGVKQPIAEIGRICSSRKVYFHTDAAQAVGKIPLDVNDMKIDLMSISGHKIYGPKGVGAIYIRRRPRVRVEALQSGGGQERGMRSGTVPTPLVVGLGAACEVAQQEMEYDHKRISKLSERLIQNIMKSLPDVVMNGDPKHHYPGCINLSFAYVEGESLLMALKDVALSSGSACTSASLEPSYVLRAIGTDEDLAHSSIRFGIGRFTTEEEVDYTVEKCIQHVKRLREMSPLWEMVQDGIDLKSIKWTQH
[Acp]2:[ISD11]2:[NFS1]2 cysteine desulfurase complex (human | E. coli), sequence (Q9HD34 whole entry, looked up, one chain of several): as the sequence (Q9HD34 whole entry) above
human ISD11-His6 (human), sequence (Q9HD34 whole entry): as above

holo-form of E. coli acyl carrier protein (Acp) (from UniProt P0A6A8 1-78) (natural protein)
stoichiometry N [1]: 1

human frataxin FXN81-210 (mature form of frataxin) (from UniProt Q16595 81-210) (natural protein)
stoichiometry N [2]: 2

human mitochondrial cysteine desulfurase NFS1 (enzyme)
stoichiometry N (human ISD11-His6 (human)): 1

B1: holo-form of E. coli acyl carrier protein (Acp) (natural protein, UniProt P0A6A8 1-78, looked up)
chain: MSTIEERVKKIIGEQLGVKQEEVTNNASFVEDLGADSLDTVELVMALEEEFDTEIPDEEAEKITTVQAAIDYINGHQA
modifications: 4'-phosphopantetheine conjugated to S37
stoichiometry N (human ISD11-His6): 1
